Test results reported in IntAct's records for PubMed 35512704.

B1: Speckle-type POZ protein (Homo sapiens), O43791 (parent)
chain: MSRVPSPPPPAEMSSGPVAESWCYTQIKVVKFSYMWTINNFSFCREEMGEVIKSSTFSSGANDKLKWCLRVNPKGLDEESKDYLSLYLLLVSCPKSEVRAKFKFSILNAKGEETKAMESQRAYRFVQGKDWGFKKFIRRDFLLDEANGLLPDDKLTLFCEVSVVQDSVNISGQNTMNMVKVPECRLADELGGLWENSRFTDCCLCVAGQEFQAHKAILAARSPVFSAMFEHEMEESKKNRVEINDVEPEVFKEMMCFIYTGKAPNLDKMADDLLAAADKYALERLKVMCEDALCSNLSVENAAEILILADLHSADQLKTQAVDFINYHASDVLETSGWKSMVVSHPHLVAEAYRSLASAQCPFLGPPRKRLKQS
partner: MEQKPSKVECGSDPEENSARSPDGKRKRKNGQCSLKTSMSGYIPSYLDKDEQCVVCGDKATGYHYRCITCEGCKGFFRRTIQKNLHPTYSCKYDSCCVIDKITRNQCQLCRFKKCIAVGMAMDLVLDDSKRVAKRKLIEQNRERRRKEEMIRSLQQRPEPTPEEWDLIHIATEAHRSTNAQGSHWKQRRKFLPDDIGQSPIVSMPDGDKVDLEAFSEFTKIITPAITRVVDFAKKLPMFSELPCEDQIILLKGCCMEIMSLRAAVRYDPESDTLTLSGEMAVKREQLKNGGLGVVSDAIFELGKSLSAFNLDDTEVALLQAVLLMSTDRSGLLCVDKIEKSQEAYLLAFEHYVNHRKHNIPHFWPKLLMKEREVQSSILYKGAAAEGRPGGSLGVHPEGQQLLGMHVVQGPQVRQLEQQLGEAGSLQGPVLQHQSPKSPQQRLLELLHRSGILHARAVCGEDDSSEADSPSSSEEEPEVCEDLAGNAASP
B2: Speckle-type POZ protein (Homo sapiens), O43791 (parent)
chain: B1 chain
partner: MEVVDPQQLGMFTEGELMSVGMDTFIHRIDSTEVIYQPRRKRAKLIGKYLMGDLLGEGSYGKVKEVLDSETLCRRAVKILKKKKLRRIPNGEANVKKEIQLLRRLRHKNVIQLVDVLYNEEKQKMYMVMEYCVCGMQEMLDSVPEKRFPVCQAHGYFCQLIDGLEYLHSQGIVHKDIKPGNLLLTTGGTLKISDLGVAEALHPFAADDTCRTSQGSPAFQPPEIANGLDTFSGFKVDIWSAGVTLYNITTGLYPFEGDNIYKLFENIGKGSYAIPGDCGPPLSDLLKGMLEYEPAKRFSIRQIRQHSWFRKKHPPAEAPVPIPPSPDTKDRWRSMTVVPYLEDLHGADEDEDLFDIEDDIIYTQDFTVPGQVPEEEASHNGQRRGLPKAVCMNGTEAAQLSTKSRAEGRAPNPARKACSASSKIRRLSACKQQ
B3: Speckle-type POZ protein (Homo sapiens), O43791 (parent)
chain: B1 chain
partner: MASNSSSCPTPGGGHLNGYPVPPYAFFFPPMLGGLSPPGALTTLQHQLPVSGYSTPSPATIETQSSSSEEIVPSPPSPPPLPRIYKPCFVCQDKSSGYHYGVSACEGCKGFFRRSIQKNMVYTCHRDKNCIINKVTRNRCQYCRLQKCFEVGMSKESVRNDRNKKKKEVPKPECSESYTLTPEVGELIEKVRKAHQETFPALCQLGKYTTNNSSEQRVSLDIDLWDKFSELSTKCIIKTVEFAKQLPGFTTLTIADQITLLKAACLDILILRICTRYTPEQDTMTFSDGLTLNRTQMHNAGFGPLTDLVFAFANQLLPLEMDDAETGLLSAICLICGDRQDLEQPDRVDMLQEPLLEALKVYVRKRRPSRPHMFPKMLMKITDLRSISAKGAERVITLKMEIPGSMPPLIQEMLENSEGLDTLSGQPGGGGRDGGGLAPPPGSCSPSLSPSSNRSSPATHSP
B4: Speckle-type POZ protein (Homo sapiens), O43791 (parent)
chain: B1 chain
partner: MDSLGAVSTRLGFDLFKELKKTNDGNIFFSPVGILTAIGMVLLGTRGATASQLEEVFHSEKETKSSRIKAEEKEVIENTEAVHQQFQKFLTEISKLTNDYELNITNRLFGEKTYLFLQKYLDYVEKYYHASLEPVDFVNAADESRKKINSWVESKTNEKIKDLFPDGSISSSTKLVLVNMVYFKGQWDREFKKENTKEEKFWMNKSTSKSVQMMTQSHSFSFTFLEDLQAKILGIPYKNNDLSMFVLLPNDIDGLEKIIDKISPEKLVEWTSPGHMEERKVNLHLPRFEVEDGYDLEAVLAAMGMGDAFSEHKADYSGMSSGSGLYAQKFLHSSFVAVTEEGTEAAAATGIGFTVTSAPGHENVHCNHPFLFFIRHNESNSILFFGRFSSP
B5: Speckle-type POZ protein (Homo sapiens), O43791 (parent)
chain: B1 chain
partner: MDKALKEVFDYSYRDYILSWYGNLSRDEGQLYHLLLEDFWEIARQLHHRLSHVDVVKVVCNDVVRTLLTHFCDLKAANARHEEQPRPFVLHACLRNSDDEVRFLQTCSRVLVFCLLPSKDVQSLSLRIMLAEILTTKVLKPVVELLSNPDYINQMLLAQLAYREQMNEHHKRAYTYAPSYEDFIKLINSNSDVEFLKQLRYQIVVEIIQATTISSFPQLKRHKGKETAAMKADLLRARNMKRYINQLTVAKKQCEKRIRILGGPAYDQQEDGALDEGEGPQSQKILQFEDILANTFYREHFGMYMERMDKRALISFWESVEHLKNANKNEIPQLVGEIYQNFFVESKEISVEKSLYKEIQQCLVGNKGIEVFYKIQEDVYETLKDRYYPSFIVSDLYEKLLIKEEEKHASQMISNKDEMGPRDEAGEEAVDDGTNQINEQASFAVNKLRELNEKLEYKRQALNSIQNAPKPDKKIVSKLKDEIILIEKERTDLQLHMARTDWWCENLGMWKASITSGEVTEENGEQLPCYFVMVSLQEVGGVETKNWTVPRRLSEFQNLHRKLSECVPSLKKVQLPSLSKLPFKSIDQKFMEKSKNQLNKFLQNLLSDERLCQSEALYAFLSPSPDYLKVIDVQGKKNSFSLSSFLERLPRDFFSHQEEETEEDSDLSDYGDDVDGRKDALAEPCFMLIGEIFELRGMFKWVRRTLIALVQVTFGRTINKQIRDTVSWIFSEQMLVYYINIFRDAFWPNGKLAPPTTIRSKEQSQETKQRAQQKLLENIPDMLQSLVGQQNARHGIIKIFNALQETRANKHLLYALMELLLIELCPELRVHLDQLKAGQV
B6: Speckle-type POZ protein (Homo sapiens), O43791 (parent)
chain: B1 chain
partner: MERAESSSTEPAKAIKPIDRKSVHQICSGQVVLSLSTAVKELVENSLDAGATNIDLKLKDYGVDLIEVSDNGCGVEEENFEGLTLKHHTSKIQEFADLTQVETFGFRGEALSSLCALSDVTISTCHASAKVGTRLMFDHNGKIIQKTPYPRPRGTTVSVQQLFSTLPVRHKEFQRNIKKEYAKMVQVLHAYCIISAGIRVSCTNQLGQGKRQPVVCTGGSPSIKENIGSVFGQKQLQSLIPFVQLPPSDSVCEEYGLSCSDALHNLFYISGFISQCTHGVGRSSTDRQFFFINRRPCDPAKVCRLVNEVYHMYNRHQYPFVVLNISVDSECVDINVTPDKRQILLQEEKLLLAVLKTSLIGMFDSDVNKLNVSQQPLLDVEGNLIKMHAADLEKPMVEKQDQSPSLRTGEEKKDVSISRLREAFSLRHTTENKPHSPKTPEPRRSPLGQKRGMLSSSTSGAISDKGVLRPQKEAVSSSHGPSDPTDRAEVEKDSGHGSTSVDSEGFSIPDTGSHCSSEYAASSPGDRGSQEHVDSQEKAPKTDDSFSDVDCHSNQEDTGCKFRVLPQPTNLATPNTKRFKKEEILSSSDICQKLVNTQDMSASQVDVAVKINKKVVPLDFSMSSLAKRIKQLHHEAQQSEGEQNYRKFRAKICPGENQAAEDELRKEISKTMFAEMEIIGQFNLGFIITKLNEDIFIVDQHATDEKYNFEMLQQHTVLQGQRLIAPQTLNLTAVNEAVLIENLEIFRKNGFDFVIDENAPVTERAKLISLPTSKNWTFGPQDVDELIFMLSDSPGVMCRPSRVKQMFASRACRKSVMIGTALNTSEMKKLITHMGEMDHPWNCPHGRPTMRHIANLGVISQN
B7: Speckle-type POZ protein (Homo sapiens), O43791 (parent)
chain: B1 chain
partner: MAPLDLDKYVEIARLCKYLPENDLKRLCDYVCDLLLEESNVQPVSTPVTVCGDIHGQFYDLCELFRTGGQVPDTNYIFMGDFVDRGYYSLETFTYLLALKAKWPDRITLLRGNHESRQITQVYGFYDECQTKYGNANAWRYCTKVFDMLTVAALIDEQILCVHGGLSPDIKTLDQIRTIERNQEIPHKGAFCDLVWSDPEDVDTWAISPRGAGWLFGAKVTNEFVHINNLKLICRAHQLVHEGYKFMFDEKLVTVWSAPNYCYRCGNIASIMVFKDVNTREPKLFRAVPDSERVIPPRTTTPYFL

Variants of: B1
Settings: with tha_human THRA

effect of a mutation on the interaction | Variant
with no effect | F133V

Variants of: B1
Settings: with tha_human THRA
Remark: another data set of the same source

effect of a mutation on the interaction | Variant
with no effect | Y87C

Variants of: B2
Settings: with stk11_human STK11, Q15831

effect of a mutation on the interaction | Variant
with no effect | F133V

Variants of: B2
Settings: with stk11_human STK11, Q15831
Remark: another data set of the same source

effect of a mutation on the interaction | Variant
with no effect | F133L

Variants of: B2
Settings: with stk11_human STK11, Q15831
Remark: another data set of the same source

effect of a mutation on the interaction | Variant
with no effect | Y87C

Variants of: B2
Settings: with stk11_human STK11, Q15831
Remark: another data set of the same source

effect of a mutation on the interaction | Variant
with no effect | F102C

Variants of: B3
Settings: with rara_human RARA

effect of a mutation on the interaction | Variant
with no effect | F102C

Variants of: B3
Settings: with rara_human RARA
Remark: another data set of the same source

effect of a mutation on the interaction | Variant
with no effect | F133L

Variants of: B3
Settings: with rara_human RARA
Remark: another data set of the same source

effect of a mutation on the interaction | Variant
with no effect | F133V

Variants of: B3
Settings: with rara_human RARA
Remark: another data set of the same source

effect of a mutation on the interaction | Variant
with no effect | Y87C

Variants of: B4
Settings: with spb13_human SERPINB13, Q9UIV8

effect of a mutation on the interaction | Variant
with no effect | F102C

Variants of: B4
Settings: with spb13_human SERPINB13, Q9UIV8
Remark: another data set of the same source

effect of a mutation on the interaction | Variant
with no effect | F133L

Variants of: B4
Settings: with spb13_human SERPINB13, Q9UIV8
Remark: another data set of the same source

effect of a mutation on the interaction | Variant
with no effect | F133V

Variants of: B4
Settings: with spb13_human SERPINB13, Q9UIV8
Remark: another data set of the same source

effect of a mutation on the interaction | Variant
with no effect | Y87C

Variants of: B5
Settings: with snx25_human SNX25, Q9H3E2

effect of a mutation on the interaction | Variant
with no effect | F102C

Variants of: B5
Settings: with snx25_human SNX25, Q9H3E2
Remark: another data set of the same source

effect of a mutation on the interaction | Variant
with no effect | Y87C

Variants of: B5
Settings: with snx25_human SNX25, Q9H3E2
Remark: another data set of the same source

effect of a mutation on the interaction | Variant
with no effect | F133V

Variants of: B5
Settings: with snx25_human SNX25, Q9H3E2
Remark: another data set of the same source

effect of a mutation on the interaction | Variant
with no effect | F133L

Variants of: B6
Settings: with pms2_human PMS2, P54278

effect of a mutation on the interaction | Variant
with no effect | F133L

Variants of: B6
Settings: with pms2_human PMS2, P54278
Remark: another data set of the same source

effect of a mutation on the interaction | Variant
with no effect | F133V

Variants of: B6
Settings: with pms2_human PMS2, P54278
Remark: another data set of the same source

effect of a mutation on the interaction | Variant
with no effect | Y87C

Variants of: B6
Settings: with pms2_human PMS2, P54278
Remark: another data set of the same source

effect of a mutation on the interaction | Variant
with no effect | F102C

Variants of: B7
Settings: with ppp6_human PPP6C

effect of a mutation on the interaction | Variant
with no effect | Y87C
